Reference: the supplement of paper PMC10724198
± gives the standard deviation of the averaged measurements.

System: Saccharomyces cerevisiae
Assay: protein stability index of tFT-peptide fusion (C-terminal peptide) (PSI (0-1 scale)); higher = more stable (slower turnover)
Conditions: genetic background: wild type; temperature: 30 C
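Note: PSI is a weighted mean of sequencing reads over stability bins, variants kept only with over 10 reads, mCherry proximal and sfGFP distal, peptide attached via GGGS linker.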

| Sequence | protein stability index |
| --- | --- |
| VARPMHFIRYGK | 0.716 ± 0.018 |
| PLHMWFSLLKPS | 0.716 ± 0.074 |
| PHDRSPPHGPKL | 0.742 ± 0.1 |
| ISEIRHSGFTRL | 0.741 ± 0.084 |
| KGKGREEEDISK | 0.674 ± 0.015 |
| GDPVKCSNSKDK | 0.685 ± 0.012 |
| LFPSSGTRLTPS | 0.667 ± 0.027 |
| RAKRADPSGPPR | 0.724 ± 0.051 |
| PHRLLTQITTGT | 0.746 ± 0.12 |
| PLPPLLPPSPPP | 0.767 ± 0.0085 |
| AGPPRTAVSPPL | 0.675 ± 0.016 |
| LHRTKHLRKGHK | 0.6905 ± 0.0033 |
| LSSPPSRPFAPS | 0.721 ± 0.089 |
| ANSGSRSSRVVG | 0.643 ± 0.1 |
| IRKIIHIDNGNT | 0.741 ± 0.096 |
| GSDVPCFLSLSY | 0.711 ± 0.02 |
| PTPPCPLVPPRP | 0.72 ± 0.074 |
| RVVDEPRDFQVR | 0.6888 ± 0.0043 |
| YVGAENRGVQGW | 0.723 ± 0.016 |
| EKIRSARKKTIH | 0.735 ± 0.0082 |
| PPPPLPATPGAS | 0.6857 ± 0.0018 |
| SPAARPLFRTIS | 0.61 ± 0.054 |
| VMSGPSGARRIW | 0.701 ± 0.055 |
| PASLSPAVPESS | 0.719 ± 0.044 |
| RCVGWRRTPESS | 0.739 ± 0.064 |
| IKDESNLKKHKN | 0.715 ± 0.041 |

| Sequence | protein stability index |
| --- | --- |
| GGLSELGSGIKC | 0.673 ± 0.0083 |
| VSGFEGCYFSDL | 0.712 ± 0.039 |
| KIGSQLAGYKIS | 0.595 ± 0.063 |
| AGVTRALSVFLL | 0.54 ± 0.043 |
| PPAAHPFAPFPS | 0.71 ± 0.014 |
| QKGSGITPSPAR | 0.757 ± 0.12 |
| LWKAGRIGTIWS | 0.714 ± 0.016 |
| DTGGGPQTSRWD | 0.715 ± 0.17 |
| SGDVGVGHWVGG | 0.692 ± 0.022 |
| RLEERTNIKKIK | 0.699 ± 0.045 |
| SYSLGAGVCGVW | 0.682 ± 0.058 |
| VWRGCRVGGQGM | 0.687 ± 0.042 |
| DGCRCQSMSKIS | 0.553 ± 0.18 |
| RYPSAPPKISAS | 0.613 ± 0.0083 |
| GALGGDSGKGGG | 0.677 ± 0.15 |
| LPLPSPLLPPRP | 0.712 ± 0.0051 |
| PPPTPPRPPPLP | 0.7059 ± 0.0022 |
| VVFTTLRHPFRG | 0.699 ± 0.027 |
| QFWRSSSSRLAS | 0.687 ± 0.045 |
| ASGAPGRGRGVV | 0.697 ± 0.083 |
| RFLCPSSFIELL | 0.794 ± 0.12 |
| GCAFVVLLSRGF | 0.604 ± 0.083 |
| GERAGGPGRGRE | 0.683 ± 0.069 |
| EDTYSGKGSRGV | 0.774 ± 0.047 |
| VACYVDWSQNHR | 0.728 ± 0.06 |
| LPPPLPSTRPVF | 0.6943 ± 0.005 |

| Sequence | protein stability index |
| --- | --- |
| KRIIRSYHFLGC | 0.698 ± 0.047 |
| PASPTLRPYWDP | 0.645 ± 0.068 |
| DASLTSGVARST | 0.67 ± 0.042 |
| PPPCPPPPLSRP | 0.666 ± 0.058 |
| RYLQAGDYTKVY | 0.695 ± 0.1 |
| GLLSKVEFEEYQ | 0.655 ± 0.014 |
| TQWRSRRHLKPQ | 0.72 ± 0.032 |
| EVCLTLTTADGH | 0.68826 ± 0.00011 |
| GGGVGGGGVEYG | 0.638 ± 0.067 |
| KKKEENGGRGDE | 0.7008 ± 0.0041 |
| LRRVKSGPYFRF | 0.684 ± 0.074 |
| EVGTSGTWPGSV | 0.714 ± 0.013 |
| STRERPDRHAVS | 0.676 ± 0.016 |
| FALPSASHFPVP | 0.7289 ± 0.0046 |
| TPRASLSATSRS | 0.719 ± 0.016 |
| PCVISRPPRLFP | 0.752 ± 0.06 |
| PELLGVARDGFR | 0.65 ± 0.0097 |
| PRSPARPPFPTP | 0.6835 ± 0.0049 |
| PLPPPPRPPAPL | 0.688 ± 0.0072 |
| RLELRVPPSFAH | 0.715 ± 0.0095 |
| GEISLSGRYRAV | 0.691 ± 0.032 |
| AEARTRYVPRPR | 0.686 ± 0.02 |
| GVEGCKRAGKLR | 0.651 ± 0.033 |
| SRRDRGHWSVRS | 0.6198 ± 0.0039 |
| RLGRSEVREYAW | 0.716 ± 0.024 |
| LRLPPPPPLPHV | 0.704 ± 0.033 |

| Sequence | protein stability index |
| --- | --- |
| VEDRTTNVLNIT | 0.682 ± 0.027 |
| SPLPRSLPPLPP | 0.654 ± 0.019 |
| RRCGTERVKARE | 0.766 ± 0.023 |
| PPSPPPPSRPIH | 0.776 ± 0.021 |
| PTRSPPPAAIAS | 0.697 ± 0.14 |
| PSLPPAYPSIAI | 0.737 ± 0.067 |
| QVISDEHLCRFV | 0.651 ± 0.083 |
| NWLYPYSLRRRG | 0.663 ± 0.13 |
| HPPLPLPCAFPP | 0.7 ± 0.033 |
| GSGRSGSRFLPV | 0.6606 ± 0.0057 |
| VSRCHLLDLSLV | 0.642 ± 0.024 |
| KRKQDKEAEKKS | 0.704 ± 0.019 |
| ATSFHALPVFTS | 0.644 ± 0.053 |
| HVSINERFKSMY | 0.717 ± 0.025 |
| EAVRASSPAGLP | 0.7017 ± 0.0023 |
| AFGRLNTWFCFP | 0.719 ± 0.037 |
| AQTEADGRAHDP | 0.6344 ± 0.0058 |
| RRADGASLNNSV | 0.697 ± 0.028 |
| DCRELCQSEVMG | 0.643 ± 0.1 |
| GAPLFTYVIVRR | 0.621 ± 0.07 |
| PPPPVPPLYLPP | 0.684 ± 0.017 |
| PPGSPPSLPPLP | 0.711 ± 0.057 |
| RALSPFPSILPS | 0.719 ± 0.068 |
